Assay results published in paper PMC4575208, “Characterization of Flavin-Containing Opine Dehydrogenase from Bacteria” (PLoS ONE, 2015).

Experiments:
[1] = target: T1, PpOdhB (beta-subunit of PpOpnDH, PpOdhABC) (Pseudomonas putida, UniProt Q88EK5+Q88EK6); experiment: inhibition of nopaline ([…]) dehydrogenase activity of the purified enzyme; format: biochemical
T1 construct: gene ooxB; N-terminal (His)6-tagged PpOdhB in the PpOdhABC complex (α4β4γ4); with PpOdhA (PP_4456) and PpOdhC
T1 sequence (Q88EK5 1-375): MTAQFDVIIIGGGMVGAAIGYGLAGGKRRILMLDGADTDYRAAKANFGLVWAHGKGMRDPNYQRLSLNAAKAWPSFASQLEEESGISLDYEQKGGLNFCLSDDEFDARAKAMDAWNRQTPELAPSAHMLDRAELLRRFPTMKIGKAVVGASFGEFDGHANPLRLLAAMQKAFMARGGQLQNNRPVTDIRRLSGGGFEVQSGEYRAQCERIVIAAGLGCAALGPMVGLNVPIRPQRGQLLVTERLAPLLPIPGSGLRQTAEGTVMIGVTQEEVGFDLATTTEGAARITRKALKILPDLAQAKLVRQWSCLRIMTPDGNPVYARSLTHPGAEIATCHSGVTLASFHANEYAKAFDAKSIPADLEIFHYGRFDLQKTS
T1 sequence (Q88EK6 2-464): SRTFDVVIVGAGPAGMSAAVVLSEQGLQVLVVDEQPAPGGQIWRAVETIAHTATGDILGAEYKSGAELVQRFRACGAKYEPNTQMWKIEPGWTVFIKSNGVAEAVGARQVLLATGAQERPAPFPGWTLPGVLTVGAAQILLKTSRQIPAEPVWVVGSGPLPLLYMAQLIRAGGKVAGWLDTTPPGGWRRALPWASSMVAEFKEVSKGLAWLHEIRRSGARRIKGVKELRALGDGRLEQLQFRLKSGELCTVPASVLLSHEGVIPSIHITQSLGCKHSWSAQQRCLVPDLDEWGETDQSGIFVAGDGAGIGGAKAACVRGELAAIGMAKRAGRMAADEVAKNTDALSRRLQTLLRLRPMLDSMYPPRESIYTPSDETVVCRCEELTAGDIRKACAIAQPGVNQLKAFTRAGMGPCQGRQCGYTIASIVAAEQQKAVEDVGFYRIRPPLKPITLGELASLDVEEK

[2] = target: (His)6-tagged PpOdhB, β-subunit of opine dehydrogenase from Pseudomonas putida KT2440 (Pseudomonas putida KT2440) (UniProt Q88EK5); experiment: pull-down; PpOdhB-C-A operon with N-terminal (His)6-tag on OdhB expressed in P. putida cells; Ni-NTA chromatography in buffer with Tween-20, 300 mM NaCl, pH 8.0; bands on SDS-PAGE identified by N-terminal sequencing; molar ratio by image scanning of SDS-PAGE peak areas (ImageJ)
purified protein [3] = substrate: N=C(N)NCCC[C@H](N[C@H](CCC(=O)O)C(=O)O)C(=O)O; experiment: purified protein; settings: FAD, FMN, [2Fe-2S] the β- and α-subunit were both necessary for substrate binding
purified protein [4] = substrate: C[C@@H](N[C@@H](CCCNC(=N)N)C(=O)O)C(=O)O; experiment: purified protein; settings: FAD, FMN
[5] = target: T2, (His)6-tagged PpOdhB, β-subunit of opine dehydrogenase from Pseudomonas putida KT2440 (Pseudomonas putida KT2440, UniProt Q88EK5 1-375); experiment: pull-down; PpOdhB-C-A operon with N-terminal (His)6-tag on OdhB expressed in P. putida cells; Ni-NTA chromatography in buffer with Tween-20, 300 mM NaCl, pH 8.0; bands on SDS-PAGE identified by N-terminal sequencing; molar ratio by image scanning of SDS-PAGE peak areas (ImageJ); settings: partners not purified
T2 construct: PpOdhB, product of gene PP_4457 of Pseudomonas putida KT2440; first gene of the operon PpOdhB-C-A; band of 42 kDa; Carries FAD; also called PP_4457; source: P. putida KT2442-oxyR1 harboring pUCP/PpOdhABC, co-expressed from the PpOdhB-C-A operon, purified (Ni-NTA); not shown: His6, N-terminal, kept
T2 sequence (looked up): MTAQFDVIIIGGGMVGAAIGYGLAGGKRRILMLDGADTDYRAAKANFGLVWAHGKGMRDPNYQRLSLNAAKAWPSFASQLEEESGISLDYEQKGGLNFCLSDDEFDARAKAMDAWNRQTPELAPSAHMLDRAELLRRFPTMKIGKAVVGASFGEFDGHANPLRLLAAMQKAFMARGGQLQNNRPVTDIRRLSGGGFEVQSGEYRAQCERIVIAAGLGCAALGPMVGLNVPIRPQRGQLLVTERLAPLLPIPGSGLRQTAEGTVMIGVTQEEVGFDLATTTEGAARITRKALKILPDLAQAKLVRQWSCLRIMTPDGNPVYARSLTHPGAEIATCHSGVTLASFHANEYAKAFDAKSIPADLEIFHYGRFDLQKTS

| Molecule | Km (purified protein [4]) | kcat (purified protein [4]) | kcat/Km (purified protein [4]) | also measured |
| --- | --- | --- | --- | --- |
| O=C(O)CCC(=O)C(=O)O [α-ketoglutarate] | – | – | – | IC50 [1]: 589 µM |
| PpOdhC, γ-subunit of opine dehydrogenase from Pseudomonas putida KT2440 (enzyme) | – | – | – | stoichiometry N [2]: 1 |
| PpOdhB (beta-subunit of PpOpnDH, PpOdhABC) (Pseudomonas putida KT2440) (protein) chain 1: MTAQFDVIIIGGGMVGAAIGYGLAGGKRRILMLDGADTDYRAAKANFGLVWAHGKGMRDPNYQRLSLNAAKAWPSFASQLEEESGISLDYEQKGGLNFCLSDDEFDARAKAMDAWNRQTPELAPSAHMLDRAELLRRFPTMKIGKAVVGASFGEFDGHANPLRLLAAMQKAFMARGGQLQNNRPVTDIRRLSGGGFEVQSGEYRAQCERIVIAAGLGCAALGPMVGLNVPIRPQRGQLLVTERLAPLLPIPGSGLRQTAEGTVMIGVTQEEVGFDLATTTEGAARITRKALKILPDLAQAKLVRQWSCLRIMTPDGNPVYARSLTHPGAEIATCHSGVTLASFHANEYAKAFDAKSIPADLEIFHYGRFDLQKTS chain 2: SRTFDVVIVGAGPAGMSAAVVLSEQGLQVLVVDEQPAPGGQIWRAVETIAHTATGDILGAEYKSGAELVQRFRACGAKYEPNTQMWKIEPGWTVFIKSNGVAEAVGARQVLLATGAQERPAPFPGWTLPGVLTVGAAQILLKTSRQIPAEPVWVVGSGPLPLLYMAQLIRAGGKVAGWLDTTPPGGWRRALPWASSMVAEFKEVSKGLAWLHEIRRSGARRIKGVKELRALGDGRLEQLQFRLKSGELCTVPASVLLSHEGVIPSIHITQSLGCKHSWSAQQRCLVPDLDEWGETDQSGIFVAGDGAGIGGAKAACVRGELAAIGMAKRAGRMAADEVAKNTDALSRRLQTLLRLRPMLDSMYPPRESIYTPSDETVVCRCEELTAGDIRKACAIAQPGVNQLKAFTRAGMGPCQGRQCGYTIASIVAAEQQKAVEDVGFYRIRPPLKPITLGELASLDVEEK | – | – | – | Km (purified protein [3]): 0.476 mM; kcat (purified protein [3]): 315 s⁻¹; kcat/Km (purified protein [3]): 663000 M⁻¹ s⁻¹ |
| BjOdhB2 (beta-subunit of BjOpnDH2, BjOdhAB2C) (Bradyrhizobium diazoefficiens USDA 110) (protein) chain 1: MTGNVDAIVIGGGIHGCSTTLHLCLAGLKPVLIEKDYAGRHASGVNAGGVRQLARHVPEIPLSIRSMGIWERITDLLDDDCSFESHGQVLVAENEDELAVCRARVAELNALGFTHEELIDATELRRLVPAVAETCPGGVVSRRDGAANPAQTTTAFRRKAEQLGATVREGVAASNIRYSDGLWYVDVGSDTYAAPVLVNAAGAWAGKIAAALGEPVPVETVAPMLMITSRVPHFIDPVVILRGRKLSFKQFSNGTVLIGGGHLATPYQDRNETVLDWKSLAISARTVFELFPVMRSATIVRAWAGIEAKMKDDIPVFGPSSRHKGLYHQFGFSLHGFQLGPGAGAVMAELIVNGGTQTRIGDLGIDRFHPSTL chain 2: MTVAPKREDYDVVVIGAGPAGLAAAATSAEAGLSTLLLDENIGPGGQVFRAISSTPVTDRNQLGADYWVGADLVQSLRASNAEVIQRAMVWSLDRNLDIAVSVGGASAFVKAKRVILATGALERPFPIPGWTLPGVMTAGAAQTMLKSSALVPDGRTVIAGQGPLLWLLAAQILRLGGRIDRILDTTERGNYFAALPHAFAFLTSPYFAKGLSMMREVKAKVQVVTGVTELTASGDGQLANVSYVAGGKRETLPVDLLLLHQGVVPNVNLAMAAGVEHRWDELQLCWSPVLDANGSSSVAGIAIAGDGAGIGGANAAVVRGRIAARAAVEALAPAAAAKLASMATLRADLAKAERGRAFLDTLFRPAPQFRIPSGDTIVCRCEEVTAKDVLDSVAIGATGPNQLKAYRRTGMGPCQGRLCGLTVTELMAQARGKSPQEIGYYRLRAPVKPITLAELAAVPKTEDDVKAVVRG | 19.5 mM | 72.8 s⁻¹ | 3730 M⁻¹ s⁻¹ | – |
| BjOdhB1 (beta-subunit of BjOpnDH1, BjOdhAB1C) (Bradyrhizobium diazoefficiens USDA 110) (protein) chain 1: MSGEYDVAVVGGGLLGSAIAWGLGRLGKKVAVLDEGDITKRASRANFALVWVQSKGLGMPAYTVWTVQASQAWGRLAFELKQQTGLDVSLQQNGGFHLTLGEDEFGQRTELVKRMHNQVGAADYKMEMLPASEVKKALPLIGPEVSGGSYCPLDGHVNSLRTFRAFHTGFMAFGIDYLPERPVSAISKSGGEFRLTTPKGELRAAKVVLAAGNANQTLAPMVGLHAPMGPTRGQIVVTERTMPFLPHPLTTIRQTDEGTVMIGDSKEDELDDRTLKHSISAVMTDRAQRMFPHLSRLNVIRSWAGIRVMPQDGFPIYDQSETHPGAFVACCHSGVTLASNHAFEIARMVAQGALEPELVGAFSASRFGGAGAANNSGY chain 2: MTVAPKREDYDVVVIGAGPAGLAAAATSAEAGLSTLLLDENIGPGGQVFRAISSTPVTDRNQLGADYWVGADLVQSLRASNAEVIQRAMVWSLDRNLDIAVSVGGASAFVKAKRVILATGALERPFPIPGWTLPGVMTAGAAQTMLKSSALVPDGRTVIAGQGPLLWLLAAQILRLGGRIDRILDTTERGNYFAALPHAFAFLTSPYFAKGLSMMREVKAKVQVVTGVTELTASGDGQLANVSYVAGGKRETLPVDLLLLHQGVVPNVNLAMAAGVEHRWDELQLCWSPVLDANGSSSVAGIAIAGDGAGIGGANAAVVRGRIAARAAVEALAPAAAAKLASMATLRADLAKAERGRAFLDTLFRPAPQFRIPSGDTIVCRCEEVTAKDVLDSVAIGATGPNQLKAYRRTGMGPCQGRLCGLTVTELMAQARGKSPQEIGYYRLRAPVKPITLAELAAVPKTEDDVKAVVRG | 4.81 mM | 0.0982 s⁻¹ | 20.3 M⁻¹ s⁻¹ | – |
| PpOdhA, α-subunit of opine dehydrogenase from Pseudomonas putida KT2440 (enzyme, UniProt Q88EK6 1-464, looked up, PpOdhA, product of gene PP_4456 of Pseudomonas putida KT2440; GTG used as start codon; band of 46 kDa (45 kDa in the methods); The start (GTG codon) may differ from the annotated entry; also called PP_4456) MSRTFDVVIVGAGPAGMSAAVVLSEQGLQVLVVDEQPAPGGQIWRAVETIAHTATGDILGAEYKSGAELVQRFRACGAKYEPNTQMWKIEPGWTVFIKSNGVAEAVGARQVLLATGAQERPAPFPGWTLPGVLTVGAAQILLKTSRQIPAEPVWVVGSGPLPLLYMAQLIRAGGKVAGWLDTTPPGGWRRALPWASSMVAEFKEVSKGLAWLHEIRRSGARRIKGVKELRALGDGRLEQLQFRLKSGELCTVPASVLLSHEGVIPSIHITQSLGCKHSWSAQQRCLVPDLDEWGETDQSGIFVAGDGAGIGGAKAACVRGELAAIGMAKRAGRMAADEVAKNTDALSRRLQTLLRLRPMLDSMYPPRESIYTPSDETVVCRCEELTAGDIRKACAIAQPGVNQLKAFTRAGMGPCQGRQCGYTIASIVAAEQQKAVEDVGFYRIRPPLKPITLGELASLDVEEK | – | – | – | stoichiometry N [5]: ~1 |
